Test results from paper PMC4393111.

Assays:
[1] = target: GFP-Dzip1 (full-length mouse Dzip1) (mouse) (UniProt Q8BMD2); test: co-IP; both partners co-expressed with tags in HEK 293T cells (some in G0 phase; some treated with the GSK3 inhibitors BIO or CHIR99021, the CK1 inhibitor D4476 or the CK2 inhibitor CX4945); IP of the GFP-, CFP/YFP-tagged partner; IP buffer 0.1% NP-40, 50 mM HEPES pH 7.00, 125 mM NaCl, 4°C
GFP-Rab8^T22N = GFP-Rab8^T22N (UniProt P61006); test: as above
[2] = target: CFP-RBD-YFP (Rab8-binding domain of Rabin8 between CFP and YFP) (human)
[3] = target: CFP-RBD-YFP (Rab8-binding domain of Rabin8 between CFP and YFP) (human); remark: listed apart in the source

UniProt P61006, sequence (P61006 whole entry T22N, the tested form may be a part): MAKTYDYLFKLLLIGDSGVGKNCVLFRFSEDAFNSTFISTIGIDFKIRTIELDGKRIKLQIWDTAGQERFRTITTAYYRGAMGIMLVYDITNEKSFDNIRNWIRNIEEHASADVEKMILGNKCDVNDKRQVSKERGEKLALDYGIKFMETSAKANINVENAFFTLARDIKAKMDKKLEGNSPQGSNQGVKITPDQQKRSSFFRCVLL

Question: Which fold co-immunoprecipitated against Rab8^Q67L [1] does the source give for “Flag-Rab8^T22N (from UniProt P61006 1-207) (natural protein)” here?
Answer: The fold co-immunoprecipitated against Rab8^Q67L was 3.5 fold.

Question: How did the fold co-immunoprecipitated against wild-type Rab8 (GFP-Rab8^T22N) turn out when “Myc-Dzip1 (from UniProt Q8BMD2 1-852) (natural protein)” was run?
Answer: Its fold co-immunoprecipitated against wild-type Rab8 is 5 fold.

Question: Which results are given for “endogenous Rab8 of NIH 3T3 cells (from UniProt P55258 1-207) (natural protein)”?
Answer: FE^CFP after YFP photo-bleaching (AB-FRET of the reporter CFP-RBD-YFP) around the cilium base, G0-phase NIH 3T3 RNAi control cells [2]: 9.3%; FE^CFP after YFP photo-bleaching (AB-FRET of the reporter CFP-RBD-YFP) at the basal body, G0-phase NIH 3T3 cells treated with the GSK3 inhibitor BIO [3]: 3.3%; FE^CFP after YFP photo-bleaching (AB-FRET of the reporter CFP-RBD-YFP) at the basal body, G0-phase NIH 3T3 cells treated with the GSK3 inhibitor CHIR99021 [3]: 2.6%; FE^CFP after YFP photo-bleaching (AB-FRET of the reporter CFP-RBD-YFP) at the basal body, G0-phase NIH 3T3 cells, untreated control [3]: 4.8%
